Reference: patent US20210139565A1 (GOVERNMENT OF THE UNITED STATES AS REPRESENTED BY THE …, published 2021)
Substitutions are numbered along the chain they refer to.

Assays:
Y. pestis YscF protein = biological target: T1, Y. pestis YscF protein (Yersinia pestis KIM5, UniProt O68691 1-87); experiment: ELISA of periplasmic extract on YscF antigen and on blank wells, OD405
T1 construct: also called YscF antigen
T1 sequence: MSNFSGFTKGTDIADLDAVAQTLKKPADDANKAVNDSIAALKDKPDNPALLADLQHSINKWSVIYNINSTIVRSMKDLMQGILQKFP

Y. pestis LcrV protein [1] = biological target: T2, Y. pestis LcrV protein (Yersinia pestis KIM5, UniProt P0C7U7 1-326); experiment: SPR, BIACORE T200, LcrV on CM5 chip, 1:1 model
T2 construct: also called LcrV antigen

Y. pestis LcrV protein [2] = biological target: T2, Y. pestis LcrV protein; experiment: SPR, BIACORE, LcrV immobilized on CM5 chip
Y. pestis LcrV protein [3] = biological target: T2, Y. pestis LcrV protein; experiment: SPR, BIACORE T200, LcrV on CM5 chip, kd/ka
Y. pestis LcrV protein [4] = biological target: T2, Y. pestis LcrV protein; experiment: Microcal (calorimetry)
Y. pestis F1 protein [5] = biological target: T3, Y. pestis F1 protein (Yersinia pestis KIM5, UniProt P26948 22-170); experiment: SPR, BIACORE, F1 immobilized on CM5 chip
T3 construct: also called F1 antigen; Fl

Y. pestis F1 protein [6] = biological target: T3, Y. pestis F1 protein; experiment: Microcal (calorimetry)

T3 sequence (P26948 22-170 limits assumed): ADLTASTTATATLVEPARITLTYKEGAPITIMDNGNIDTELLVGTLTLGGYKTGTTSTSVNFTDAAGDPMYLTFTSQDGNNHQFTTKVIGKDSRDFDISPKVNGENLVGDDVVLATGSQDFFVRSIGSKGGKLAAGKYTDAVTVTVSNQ
T2 sequence (P0C7U7 whole entry): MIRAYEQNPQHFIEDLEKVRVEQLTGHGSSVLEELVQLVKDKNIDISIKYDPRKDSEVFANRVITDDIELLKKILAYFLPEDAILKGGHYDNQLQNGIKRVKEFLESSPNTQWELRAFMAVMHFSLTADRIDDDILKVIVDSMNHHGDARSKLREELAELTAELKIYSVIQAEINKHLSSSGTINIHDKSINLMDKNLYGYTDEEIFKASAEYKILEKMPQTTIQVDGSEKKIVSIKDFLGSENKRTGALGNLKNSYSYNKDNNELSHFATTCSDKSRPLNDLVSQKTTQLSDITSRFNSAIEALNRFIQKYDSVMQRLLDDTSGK

B1: 3yscf140 (VHH)
VHH: QVQLQESGGGLVQAGGSLRLACAASGETVDDLAIGWFRQAPGKEREEISCISGSDGSTYYADSLSGRFTISRDNVKNTVYLQMNSLKLEDTAVYYCYAEIYDRRWYRNDYWGQGTQVTVSS
binding result (Y. pestis YscF protein): binds

B2: 1LCRV28 (VHH)
VHH: QVQLQESGGGLVQPGGSLRLSCAASGGTLGYYAIGWFRQAPGKEREAVSCITSSDTSAYYADSAKGRFTISRDNAKNTMYLQMNNLKPEDTAVYYCAAGYYFRDYSDSYYYTGTGMKVWGKGTQVTVSS
koff (Y. pestis LcrV protein [1]): 8.1e-05 s⁻¹ | kon (Y. pestis LcrV protein [1]): 430000 M⁻¹ s⁻¹ | Kd (Y. pestis LcrV protein [2]): 0.19 nM | Kd (Y. pestis LcrV protein [3]): 0.19 nM | Kd (Y. pestis LcrV protein [4]): 0.2 nM

B3: 3F5 (VHH)
VHH: QVQLQESGGGLVQSGDSLRLSCAASGFTFSNYAMSWVRQAPGKGLEWVSTINSGGGSTSYAYSVKGRFTISRDNAKNTLYLQMNSLKPEDTAVYYCAKTASHIPLSQGTQVTVSS
Kd (Y. pestis F1 protein [5]): 47 nM | Kd (Y. pestis F1 protein [6]): 83 nM

B4: 1LCRV32 (VHH)
VHH: QVQLQESGGGMVEPGGSLRLSCAASGFRFSSYAMSWVRQAPGKGLERVSAINSDGDKTSYADSVKGRFTISRDNARNTLYLQMSNLKPEDTAVYYCADRDLYCSGSMCKDVLGGARYDFRGQGTQVTVSS
koff (Y. pestis LcrV protein [1]): 0.0073 s⁻¹ | kon (Y. pestis LcrV protein [1]): 340000 M⁻¹ s⁻¹ | Kd (Y. pestis LcrV protein [2]): 22 nM | Kd (Y. pestis LcrV protein [3]): 22 nM | Kd (Y. pestis LcrV protein [4]): 26 nM

B5: 2LCRV11 (VHH)
VHH: QVQLQESGGGLVQPGGSTRLSCAASGFTLDIYAIGWFRQAPGKEHEGVSWIVGNDGRTYYIDSVKGRFTISRDNAKNTVYLEMNSLKPEDTAVYYCAAKFWPRYYSGRPPVGRDGYDYWGQGTQVTVSS
koff (Y. pestis LcrV protein [1]): 0.0072 s⁻¹ | kon (Y. pestis LcrV protein [1]): 880000 M⁻¹ s⁻¹ | Kd (Y. pestis LcrV protein [2]): 8.2 nM | Kd (Y. pestis LcrV protein [3]): 8.2 nM

B6: 3yscf142 (VHH)
VHH: QVQLQESGGGLVQAGGSLRLSCAASGRTFSSHAMAWFRQGPGEERQFLAAIRWNGDNIHYSDSAKGRFTISRDLAKNTLYLQMNSLKPEDTAVYYCARGVYDYWGQGTQVTVSS
binding result (Y. pestis YscF protein): binds

B7: 3yscf24 (VHH)
VHH: QVQLQESGGGLVQAGGSLKLSCTASQRTFSRYSLGWFRQAPGEERVFVAATTWSGISSDYADSVKGRFTISRDNAKNTGYLQMNNLKPEDTGVYYCAAGRSSWFAPWLTPYEYDYWGRGTQVTVSS
binding result (Y. pestis YscF protein): binds

B8: 3F1 (VHH)
VHH: QVQLQESGGGLVQPGGSLRLSCAASGFTFSTSAMSWIRQPPGKAREVVATITSAGGSISYVNSVKGRFTISRDNAKNTLYLQMNMLKPEDTAVYYCARLVNLAQTGQGTQVTVSS
Kd (Y. pestis F1 protein [5]): 97 nM | Kd (Y. pestis F1 protein [6]): 110 nM

B9: 1LCRV13 (VHH)
VHH: QVQLQESGGGLVRPGGSLKLSCAASGFTFNWYTMAWYRQVPGEERKMVATITGASGDTKYADSVKGRFTISRDNAKNTVTLQMNSLKPGDTAVYYCHAYLTYDSGSVKGVNYWGQGTQVTVSS
koff (Y. pestis LcrV protein [1]): 1.6e-07 s⁻¹ | kon (Y. pestis LcrV protein [1]): 250000 M⁻¹ s⁻¹ | Kd (Y. pestis LcrV protein [2]): 0.00063 nM | Kd (Y. pestis LcrV protein [3]): 0.00063 nM | Kd (Y. pestis LcrV protein [4]): 3.2 nM

B10: 1LCRV81 (VHH)
VHH: B9 VHH with L11S, R13Q, F68S, Y99C
koff (Y. pestis LcrV protein [1]): 0.00063 s⁻¹ | kon (Y. pestis LcrV protein [1]): 180000 M⁻¹ s⁻¹ | Kd (Y. pestis LcrV protein [2]): 3.5 nM | Kd (Y. pestis LcrV protein [3]): 3.5 nM

B11: 4F1 (VHH)
VHH: QVQLQESGGGLVQPGGSLSLSCSASGIIFSDYALTWYRQAPGKQREWVAQITRSQNINYTGSVKGRFTVSRDNAKNTVHLQMNSLKPEDTAVYYCHAYDGRRPPYWGQGTQVTVSS
Kd (Y. pestis F1 protein [5]): 520 nM

B12: 3F61 (VHH)
VHH: B11 VHH with S19R, T90A
Kd (Y. pestis F1 protein [5]): 68 nM | Kd (Y. pestis F1 protein [6]): 290 nM

B13: 4F34 (VHH)
VHH: B11 VHH with L11S
Kd (Y. pestis F1 protein [5]): 390 nM

B14: 4F6 (VHH)
VHH: B11 VHH with L11S, P103R, P104T
Kd (Y. pestis F1 protein [5]): 34 nM | Kd (Y. pestis F1 protein [6]): 80 nM

B15: 3yscf57 (VHH)
VHH: QVQLQESGGGLVQAGGSLRLSCAASGRTWRAYYMGWFRQAPGKEREFVAVMSRSGGTTSYADSVKGRFTISRDNAKNTVYLQMNNLAPEDTATYYCKAGGGMYGPDLYGMTYWGKGTQVTVSS
binding result (Y. pestis YscF protein): binds

B16: 3yscf75 (VHH)
VHH: QVQLQESGGGLVQAGDSRILSCTASGRTFGRPFRYTMGWFRRAPGKEREFVGGITRSGNNIYYSDSVKGRFTISRDNAKNTVYLQMNSLKPEDTAVYYCNADWGWRNYWGQGTQVTVSS
binding result (Y. pestis YscF protein): binds

B17: 1LCRV47 (VHH)
VHH: QVQLQESGGGLVQPGGSLILSCTISGASLRDRRVTWSRQGPGKSLEIIAVMAPDYGVHYFGSLEGRVAVRGDVVKNTVYLQVNALKPEDTAIYWCSMGNIRGLGTQVTVSS
Kd (Y. pestis LcrV protein [2]): > 1000 nM

B18: 3yscf124 (VHH)
VHH: QVQLQESGGGLVQAGGSLRLSCVASGRAFSNYAMAWFRQAPGKEREFVAANWRSGGLTDYADSVKGRFTISRDDAKNTVYLQMNSLKPEDTAVYYCAAGGGSRWYGRTTASWYDYWGQGTQVTVSS
binding result (Y. pestis YscF protein): binds

B19: 1LCRV31 (VHH)
VHH: QVQLQESGGGLVQPGGSLGLSCAASGSLLNIYAMGWYRQAPGRQRELVATVTSSGTAEYADSVKGRFTISRDNAKNTVYLQMNSLRPEDTGVYYCNAHLRYGDYVRGPPEYNYWGQGTQVTVSS
koff (Y. pestis LcrV protein [1]): 3.1e-07 s⁻¹ | kon (Y. pestis LcrV protein [1]): 170000 M⁻¹ s⁻¹ | Kd (Y. pestis LcrV protein [2]): 0.0019 nM | Kd (Y. pestis LcrV protein [3]): 0.0019 nM | Kd (Y. pestis LcrV protein [4]): 0.76 nM

B20: 4F59 (VHH)
VHH: QVQLQESGGGLVRPGGSLRLSCEASGTTFRSLVMKWYRQAPGKEREWVAFISSPGDRTRYTEAVKGRFTISRDNAKNALYLQMNGLKPEDTAVYYCNANGIYWGKGTQVTVSS
Kd (Y. pestis F1 protein [5]): 27 nM | Kd (Y. pestis F1 protein [6]): 83 nM

B21: 3F55 (VHH)
VHH: QVQLQESGGGLVQAGGSLRLSCAVSGMMYIREAIRWYRQAPGKQREWVAFVSSTGNPRYTDSVKGRFTISRDNAKNTVYLQMNSLTPEDTAVYYCNTYLGSRDYWGQGTQVTVSS
Kd (Y. pestis F1 protein [5]): 2.2 nM | Kd (Y. pestis F1 protein [6]): 190 nM

B22: 3F85 (VHH)
VHH: B21 VHH with A14P, E32Y, A33T, I34M, F50V, R58H, T60A
Kd (Y. pestis F1 protein [5]): 15 nM | Kd (Y. pestis F1 protein [6]): 110 nM

B23: 3yscf15 (VHH)
VHH: QVQLQESGGGLVQAGGSLRLSCAVSGRTFSRYAMGWFRQAPGKEREFVAAISWSGSSTYYADSVKGRFTISRDHAKNVMYLQMNGLKPEDTGVYVCARPAYGLRPPYNYRGQGTQVTVSS
binding result (Y. pestis YscF protein): binds

B24: 3F59 (VHH)
VHH: QVQLQESGGGLVQPGGSLRLSCAASGFTFSSYAMSWVRLAPGKGLEWVSTINIAGGITSYADSVKGRFTISRDNAKNTLYLQMNSLKPEDTAVYYCAKTAANWSAQRGQGTQVTVSS
Kd (Y. pestis F1 protein [5]): 5.9 nM
